Article PMC3642092

Target: F-actin (filamentous rabbit skeletal muscle actin) (rabbit), P68135
Assay: co-sedimentation
Conditions: remark: other sources report otherwise

- Kd: 19.2 µM
- stoichiometry N: 1
B1: utrophin actin binding domain, utrophin residues 1-261 (UTR261), wildtype, P46939 1-261 (domain or fragment)
chain: MAKYGEHEASPDNGQNEFSDIIKSRSDEHNDVQKKTFTKWINARFSKSGKPPINDMFTDLKDGRKLLDLLEGLTGTSLPKERGSTRVHALNNVNRVLQVLHQNNVELVNIGGTDIVDGNHKLTLGLLWSIILHWQVKDVMKDVMSDLQQTNSEKILLSWVRQTTRPYSQVNVLNFTTSWTDGLAFNAVLHRHKPDLFSWDKVVKMSPIERLEHAFSKAQTYLGIEKLLDPEDVAVQLPDKKSIIMYLTSLFEVLPQQVTID
